Values belong to the molecule of their own block, whether it stands above or below them.
Legend:
[1] = GST activity toward herbicide metolachlor (HPLC-based assay); format: biochemical
Procedure: (§1) The purified isoenzymes were assayed for GST activity toward herbicides using the HPLC-based assays described by Edwards R. and Cole D. J. (Pesticide Biochemistry and Physiology Vol. 54, pp96-104 (1996)) and the results are presented in Table 2. […] These isoenzymes had additional activities as glutathione peroxidases able to reduce linoleic acid hydroperoxide, a major reaction product formed during membrane peroxidation in plants (Williamson and Beverly. J. Cereal Sci. 8, 1988, 155-163).
(§2) To assay the recombinant fusion proteins for GST activity, the E. coli were grown in the presence of IPTG and then pelleted by centrifugation. The bacteria were then lysed by sonication and the protein precipitated using 80% ammonium sulphate. After resuspension and desalting, GSTs were purified by affinity chromatography. The WIC 3 fusion protein was purified using sulphobromophthalein-S-glutathione affinity chromatography (Mozer et al. Biochem. 22, 1983, 1068-1072) while the other WIC fusion proteins were purified using glutathione-agarose (Mannervik and Guthenberg. Methods Enzymol. 77 1981, 231-235).The purified enzymes were then assayed for GST activities toward herbicides (Table 3) and GST activities toward non-herbicide substrates and glutathione peroxidase activities toward organic hydroperoxides (Table 4).
(§3) A polyclonal antiserum was raised in a rabbit to a mixture of TaGST1-2 and TaGST1-3. When tested against crude extracts from safener-treated wheat shoots the antiserum recognised both the 25 kDa TaGST1 subunit and the 26 kDa safener-inducible TaGST2 and TaGST3 subunits. The antiserum was then used in conjunction with the antiserum raised to TaGST1-1 to immuno screen the cDNA library prepared from fenchlorazole ethyl treated wheat shoots as described in example 1. Duplicate lifts were taken from the plated out library and the first blot screened with the antiserum raised against TaGST1-2 and TaGST1-3. The second blot was screened with the antiserum raised to TaGST1-1. Five plaques were identified from the first blot which were absent from the second blot corresponding to cDNAs encoding TaGST2 or TaGST3 like polypeptides and theses clones were purified and the respective plasmids sequenced. […] The other three clones ICC. ICP and ICV had identical DNA sequences (SEQ ID No. 17) and predicted amino acid sequence (SEQ ID No. 18). GST ICJ was sub-cloned into the pET 11a vector after using PCR to introduce a Nde 1 restriction site into the translation start site, using the primer 5′ AGGTAGTTACATATGGCCGGAGGA 3′ (SEQ ID No. 19) in the amplification. following sub-cloning, the sequence of GST ICJ was re-checked to ensure no PCR induced errors had been introduced. The recombinant GST ICJ was then expressed in E. coli and purified by S-hexylglutathione affinity chromatography. The purified GST ICJ was assayed for activities as a GST (Table 3) and as a glutathione peroxidase (Table 4). […] GST ICV was finally expressed as the respective beta-galactosidase fusion protein using the Bluescript plasmid and assayed for GST activity (Table 3 ) and glutathione peroxidase activity (Table 4) in crude bacterial lysates. The specific activity of GST ICV toward these substrates was then calculated by I) subtracting the low levels of GST and GPOX activity present due the endogenous activities in the E. coli and ii) determining the proportion of protein in the lysate present as recombinant GST ICV from SDS-PAGE analysis, by densitometry analysis of polypeptides stained with Coomassie blue.

[2] = Glutathione peroxidase activity toward cumene hydroperoxide; format: biochemical
Procedure: as §2, §3

[3] = GST activity toward herbicide fenoxaprop-ethyl (HPLC-based assay); format: biochemical
Procedure: as §1, §2, §3

GST activity toward CDNB = format: biochemical
Procedure: as §1
To confirm that TaGST1 encoded a GST, it was expressed as a fusion protein with beta-galactosidase using the pBluescript plasmid in E. coli strain SOLR. TaGST1 clones were inoculated into LB liquid medium and were grown overnight at 37/C on all orbital shaker in the presence of IPTG. Bacteria were then pelleted by centrifugation, lysed by sonication and assayed for GST activity toward CDNB and analysed by SDS-PAGE and Western blotting using the anti-TaGSTI-I serum. With all six TaGST1 clones, GST activity toward CDNB could be determined in the crude extracts in the range 30-50 nkat/mg crude lysate.
as §2
as §3, with “The specific activity of GST ICV toward these substrates was then calculated by I) subtracting the low levels of GST and GPOX activity present due the endogenous activities in the E. coli and ii) determining the proportion of protein in the lysate present as recombinant GST ICV from SDS-PAGE analysis, by densitometry analysis of polypeptides stained with Coomassie blue.” left out

[4] = GST activity toward herbicide fluorodifen (HPLC-based assay); format: biochemical
Procedure: as §1, §2, §3

wheat shoots = assay: Enhancement of GST isoenzyme expression in wheat shoots by safener fenchlorazole-ethyl; format: in vivo, Triticum aestivum L. var. Hunter
Procedure: Wheat seeds (Triticum aestivum L. var. Hunter) were imbibed in a 10 mg/l solution of the herbicide safener fenchlorazole-ethyl and then grown in an environmental growth room with further root-applied watering treatments of 5 mg/l fenchlorazole ethyl applied as required. At 10 days after imbibing, the shoot tissue was harvested and extracted prior to precipitation of the protein with ammonium sulphate (80% saturation). The total protein extract was then applied in the presence of 1 M ammonium sulphate to a phenyl-Sepharose column. The bound GSTs were then recovered, firstly by reducing the ammonium sulphate concentration to 0 M to yield the polar GST fraction, which represented 61% of the recovered activity toward 1-chloro-2,4-dinitrobenzene (CDNB). The remaining 39% of the GST activity was then recovered by adding ethylene glycol (50% v/v) to the running buffer to yield the hydrophobic GST fraction. […] The component polypeptides in the active fractions were then analysed by silver staining after resolution by sodium dodecyl sulphate polyacrylamide gel electrophoresis (SDS-PAGE). It was concluded that in fenchlorazole-ethyl-treated wheat the polar GSTs were composed of 25 kDa and 26 kDa polypeptides, while the hydrophobic fraction contained 25 kDa, 26 kDa and 24 kDa polypeptides. Further analysis by reversed-phase HPLC confirmed the subunit compositions (FIG. 2). Based on the combined analyses by Q-sepharose, HPLC and SDS-PAGE these GST polypeptides were named as described in Table 1, which also contains details of how these subunits associate together to form the active dimers found in plants and the relative abundance of these subunits in extracts from unsafened and fenchlorazole-ethyl treated ([…]) plants.

[5] = beta-galactosidase fusion in crude bacterial lysates, E. coli background subtracted, corrected for proportion of recombinant protein
[6] = isoenzymes purified from fenchlorazole-ethyl-treated wheat shoots
[7] = recombinant wheat GST expressed in E. coli, affinity purified, ± standard error
[8] = recombinant wheat GST expressed in E. coli, affinity purified

B1: ICC/V/P: recombinant type III wheat GST; clones ICC, ICP and ICV with identical sequence, SEQ ID No. 17, amino acid SEQ ID No. 18 (protein)
chain: MAGGEELKLLGWWAPGVSPYVLRAQMALAVKGLSYDYLPEDRWSTSDLLIASNPVYKKVPVLIHNGRPVCESLLILEYLDDAVGLAGNGKPILPADPYSRAVARFWAAYVNDKLFPSCTGILKTTKQEERAGKMEETLSGLRHLEAVMAECSEGEAEAPFFGGDAIGFLDIALGCYLPWFEAAGRLAGLGPIIDPARTPKLAAWAERFSVAEPIKALLPGVDKLEEYITTALYPKWNIAVTGN
modifications: Triticum aestivum L.
GST activity toward metolachlor [1, 5]: 0.000 ± 0.000 nkat.mg^−1
Glutathione peroxidase activity toward cumene hydroperoxide [2, 5]: 0.84 ± 0.04 absorbance change at 340 nm.mg^−1
GST activity toward fenoxaprop-ethyl [3, 5]: 0.074 ± 0.008 nkat.mg^−1
GST activity toward CDNB (GST activity toward CDNB; [5]): 30 nkat.mg^−1
GST activity toward fluorodifen [4, 5]: 0.000 ± 0.000 nkat.mg^−1

% enhancement by safener (wheat shoots; fenchlorazole-ethyl treated (safened) versus unsafened wheat shoots): 30-50%
Increase in expression following exposure to fenchlorazole-ethyl (wheat shoots; leaves of wheat seedlings): approximately 50%
B2: TaGST1-1: wheat GST isoenzyme purified from safener-treated shoots, homodimer of 25 kDa TaGST1 subunits (SEQ ID No. 2/SEQ ID No. 2) (protein)
chain 1: MAGEKGLVLLDFWVSPFGQRVRIALAEKGLPYEYAEEDLMAGKSDRLLRANPVHKKIPVLLHDGRAVNESLIILQYLEEAFPDAPALLPSDPYARAQARFWADYVDKKVYDCGSRLWKLKGEPQAQARAEMLDILKTLDGALGDKPFFGGDKFGFVDAAFAPFTAWFHSYERYGEFSLPEVAPKIAAWAKRCGERESVAKSLYSPDKVYDFIGLLKKKYGIE
chain 2: MAGEKGLVLLDFWVSPFGQRVRIALAEKGLPYEYAEEDLMAGKSDRLLRANPVHKKIPVLLHDGRAVNESLIILQYLEEAFPDAPALLPSDPYARAQARFWADYVDKKVYDCGSRLWKLKGEPQAQARAEMLDILKTLDGALGDKPFFGGDKFGFVDAAFAPFTAWFHSYERYGEFSLPEVAPKIAAWAKRCGERESVAKSLYSPDKVYDFIGLLKKKYGIE
modifications: homodimer; Triticum aestivum L.
GST activity toward metolachlor [1, 6]: 0.11 nkat.mg^−1
GST activity toward fenoxaprop-ethyl [3, 6]: 0 nkat.mg^−1
GST activity toward CDNB (GST activity toward CDNB; [6]): 1,528 nkat.mg^−1
GST activity toward fluorodifen [4, 6]: 0.97 nkat.mg^−1

B3: ICR: recombinant safener-inducible type III wheat GST clone, SEQ ID No. 15, amino acid SEQ ID No. 16 (protein)
chain: MAGDGELKLLGVWTSPFVIRVRVVLNLKSLPYEYVEESLGSKSALLLGSNPVHQSVPVLLHGGRPVNESQVIVQYIDEVWAGAGPSVLPADPYERATARFWAAYVDDKVGSAWTGMLFSCKTEEERAEAVSRAVAALETLEGAFAECSKGKAFFGGDAIGFVDVVLGGYLGWFGAIDKIIGRRLIDPARTPLLARWEERFRAADAAKGVVPDDADKMLEFLPTVLAWIAGKAK
modifications: Triticum aestivum L.
GST activity toward metolachlor [1, 7]: 0.000 ± 0.000 nkat.mg^−1
GST activity toward fenoxaprop-ethyl [3, 7]: 0.028 ± 0.001 nkat.mg^−1
GST activity toward CDNB (GST activity toward CDNB; [8]): 8139 nkat.mg^−1
GST activity toward fluorodifen [4, 7]: 0.037 ± 0.002 nkat.mg^−1

B4: TA 27: recombinant wheat GST from cloquintocet-mexyl-induced cDNA, SEQ ID No. 13, amino acid SEQ ID No. 14, expressed from pET 11a (protein)
chain: MEPMKVYGWAVSPWMARVLVSLEEAGADYELVPMSRNGGDHRRPEHLARNPFGEIPVLEYGGLTLYQSRAIARHILRKHKPGLLGAGSLEESAMVDVWVDVDAHHLEPVLKPIVWNCIINPFVGRDVDQGLVDESVEKLKKLLEVYEARLSSNKYLAGDFVSFADLTHFSFMRYFMATEHAVVLDAYPHVKAWWKALLARPSVKKVIAGMPPDFGFGSGRIP
modifications: Triticum aestivum L.
GST activity toward metolachlor [1, 7]: 0.063 ± 0.006 nkat.mg^−1
Glutathione peroxidase activity toward cumene hydroperoxide ([2]; recombinant wheat GST, affinity purified, ± standard error (n = 3)): 3.6 ± 0.4 absorbance change at 340 nm.mg^−1
GST activity toward fenoxaprop-ethyl [3, 7]: 0.036 ± 0.004 nkat.mg^−1
GST activity toward CDNB (GST activity toward CDNB; [8]): 237 nkat.mg^−1
GST activity toward fluorodifen [4, 7]: 0.034 ± 0.003 nkat.mg^−1

From patent US6730828B1, “Isolated nucleic acids encoding a wheat glutathione transferase, plants transformed therewith and methods of use thereof” (Aventis Agriculture Limited, priority 1997, dated 2004)
